Patent publication US20250339569A1 (3B PHARMACEUTICALS, published 2025)
Starred links: 1 amine or outer side, 2 acyl side, 3 side chain; linkers in the order of their positions; H or OH if unused. Positions of bridges follow the written chain, without caps; N, C: chain ends. Non-standard residues stand in square brackets, D forms with d. Primed or numbered codes have the meaning given here. *: point of attachment. Aph(SaPr)(3) = 4-amino-L-phenylalanine with ring amino acylated by 3-sulfamoylpropanoic acid, NS(=O)(=O)CCC(=O)Nc1ccc(C[C@H](N[*:1])C(=O)[*:2])cc1; DOTA = O=C(O)CN1CCN(CC(=O)O)CCN(CC(=O)*)CCN(CC(=O)O)CC1; mXylylene = c1cc(C[*:1])cc(C[*:2])c1

Molecular target: T1, canine carbonic anhydrase 9 (CAIX) (dog)
T1 construct: Expressed on transfected CHO cells (CHO-dogCA9); also called dgCAIX; dog CAIX
Test: radioligand saturation binding on CHO-dgCAIX cells, 8 h at 37 °C, experiment iii
Method: The radioligand saturation binding on CHO-huCAIX and dgCAIX was determined as follows. […] To determine total binding, 700 μL of binding medium and 100 μL of the radioligand dilutions were added to the wells in triplicates. […] The plates were incubated for 8 h at 37° C. under standard cell culture conditions (5% CO2). At the end of the incubation time the plates were placed on ice while aspirating the radioligand solutions. Aliquots of the 20 nM supernatants were transferred to HPLC vials for analysis of radioligand stability over the incubation time. Subsequently, the cells were washed with ice-cold PBS (0.5 mL, 1 mL, 1 mL). 300 μL of RIPA buffer containing PIC was added to each well and the plates were placed on a shaker for 10 min at ambient temperature. 200 μL of the cell lysate of each well was transferred to gamma-counting tubes. Their associated radioactivity was counted using a gamma counter and normalized to the measured protein concentration of each well (see chapter 6.3.7 BCA protein assay). An aliquot of each radioligand dilution was included in the gamma counter measurements to allow for determination of the actual radioligand concentrations in the dilution series.

T1 sequence (chain, as listed by the source limits assumed): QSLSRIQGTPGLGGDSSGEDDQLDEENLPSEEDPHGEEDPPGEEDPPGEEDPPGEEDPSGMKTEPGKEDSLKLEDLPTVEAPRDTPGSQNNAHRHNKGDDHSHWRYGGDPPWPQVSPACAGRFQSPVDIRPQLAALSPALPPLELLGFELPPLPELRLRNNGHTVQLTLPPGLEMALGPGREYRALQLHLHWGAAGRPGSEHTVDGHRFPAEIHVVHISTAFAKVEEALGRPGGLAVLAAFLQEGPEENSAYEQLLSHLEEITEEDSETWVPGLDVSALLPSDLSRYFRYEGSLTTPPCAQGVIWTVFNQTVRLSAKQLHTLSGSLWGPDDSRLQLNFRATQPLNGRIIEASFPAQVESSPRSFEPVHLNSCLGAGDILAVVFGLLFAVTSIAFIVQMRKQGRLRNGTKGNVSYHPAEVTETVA

pKd: 9.6 -log10(M)
B1: [^111In]In-DPI-4501 (peptide)
peptide: {DOTA}-QCE[dP]D[Aph(SaPr)(3)]LTWSC-NH2
modifications: linker 2-11 via mXylylene; also: 111In complexed by DOTA
notes: Cyclic peptide with chelator DOTA complexing In-111; X stands for the non-natural residue Aph(SaPr); also called ^111In-DOTA-Q-[C(3MeBn)-EPD-Aph(SaPr)-LTWSC]-NH2; ^111In-3BP-4501
